Experimental findings from PMC11009412, “Pathogenic mutations of human phosphorylation sites affect protein–protein interactions” (Nature Communications, 2024) are described below.

In this test the test system is BirA*-FLAG-GATAD1 variants in Flp-In-293 cells. The experiment in a line: BioID proximity labelling of full-length GATAD1 variants (SILAC). It counts as cell-based, human. The following applies: GATAD1 WT vs S102P, significant proteins only; for Log2_Ratio.H.L.normalized.WT_S102P_forward: forward experiment (label swap performed, sign inverted against the H/L ratio); for Log2_Ratio.H.L.normalized.WT_S102P_forward / Log2_Ratio.H.L.normalized.WT_S102P_reverse: log2 of normalized H/L ratio; for Ratio.H.L.normalized.WT_S102P_forward: forward experiment; for Log2_Ratio.H.L.normalized.WT_S102P_reverse / Ratio.H.L.normalized.WT_S102P_reverse: reverse experiment. The source says:
The GATAD1 gene variants were ordered in a pTwist ENTR Kozak vector from Twist Bioscience. The genes were then transferred to a pDEST_pcDNA5_BirA_FLAG_Nterm vector[97] using the Gateway Clonase II system (Thermo Fisher Scientific). The resulting vectors, pEXPR_GATAD1-WT_N-term_BirA_FLAG, pEXPR_GATAD1-S102P_N-term_BirA_FLAG, pEXPR_GATAD1-S102D_N-term_BirA_FLAG, and pEXPR_GATAD1-S102A_N-term_BirA_FLAG, were used to generate tetracycline-inducible stable Flp-In^TM-293 T-REx cells. A 6-well plate was co-transfected with 0.5 µg of the pEXPR plasmid and 1 µg of the pOG44 Flp-recombinase expression vector (Thermo Fisher Scientific) using 4.5 µg of PEI (Polysciences) as a transfection reagent. The following day, the cells were trypsinized and transferred to a 10 cm dish containing DMEM supplemented with 10% FCS and 200 µg/ml hygromycin B (Invivogen) for selection. The cells were cultured for approximately 18 days with media exchange every 3 days until visible colonies were observed. After around 18 days, the colonies were trypsinized and transferred to another 10 cm dish for further characterization and experiments.
Stable Flp-In^TM-293 cell lines expressing GATAD1 variants were cultured using SILAC light (Lys0, Arg0) and SILAC heavy (Lys8, Arg10) media, as explained in the cell culture section. After full labeling, cells were split into 15 cm dishes and were treated with 1 μg/mL tetracycline for 24 h to induce the expression of GATAD1. After the induction period, cells were incubated with 50 μM biotin overnight for proximity biotinylation. As a control, wild-type GATAD1 cells, without biotin or tetracycline addition, were used. Samples were multiplexed, as shown in Supplementary Fig. 41A with both forward and reverse label swap (n = 2). Cells were then lysed in lysis buffer (50 mM Tris-HCl pH 7.5, 150 mM NaCl, 1% Triton X-100, 1 mM EDTA, 1 mM EGTA, 0.1% SDS) with freshly added protease inhibitors and 1% sodium deoxycholate. To digest the excess DNA, 1 μl of Benzonase was added, and the samples were incubated for 20 min at 37 °C. Biotinylated proteins were enriched for 3 h at 4 °C using streptavidin-sepharose beads (GE Cat# 17-5113-01). Beads were pre-washed twice with 0.01% BSA and twice with lysis buffer. After enrichment, the beads were washed one time with lysis buffer, two times with washing buffer (50 mM HEPES-KOH pH 8.0, 100 mM KCl, 10% glycerol, 2 mM EDTA, 0.1% NP-40), and six times with 50 mM ammonium bicarbonate. Beads were resuspended in ammonium bicarbonate, and an on-bead protein digest with 1 μg of trypsin followed overnight. The next day, the digested proteins were transferred to a fresh tube and were incubated with 10 mM DTT for 30 min at 37 °C and with 55 mM iodoacetamide for 20 min at 37 °C in the dark. Samples were desalted with StageTips.
Peptides were separated using reversed-phase liquid chromatography (EASY nLC II 1200, Thermo Fisher Scientific) with self-made C18 microcolumns (20 cm long) packed with ReproSil-Pur C18-AQ 1.9 μm resin (Dr. Maisch, cat# r119.aq.0001). The chromatography system was coupled online to the electrospray ion source (Proxeon) of an Orbitrap Exploris 480 mass spectrometer (Thermo Fisher Scientific). The mobile phase consisted of buffer A (0.1% formic acid and 5% acetonitrile) and buffer B (0.1% formic acid and 80% acetonitrile). Peptides were eluted using a gradient with increasing concentrations of buffer B over 110 minutes, at a flow rate of 250 nl/min. Mass spectrometry data was acquired in data-dependent mode with settings for one full scan (resolution: 60,000; m/z range: 350–1600; normalized AGC target: 300%; maximum injection time: 10 ms), followed by top 20 MS/MS scans using higher-energy collisional dissociation (resolution: 15,000; m/z range: 200–2000; normalized AGC target: 100%; maximum injection time: 120 ms; isolation width: 1.3 m/z; normalized collision energy: 28%).
Raw files were analyzed with MaxQuant, version 2.0.3.0. […]

B1: KNOP1 (protein, UniProt Q1ED39 1-458, looked up)
Lysine-rich nucleolar protein …: MITKTHKVDLGLPEKKKKKKVVKEPETRYSVLNNDDYFADVSPLRATSPSKSVAHGQAPEMPLVKKKKKKKKGVSTLCEEHVEPETTLPARRTEKSPSLRKQVFGHLEFLSGEKKNKKSPLAMSHASGVKTSPDPRQGEEETRVGKKLKKHKKEKKGAQDPTAFSVQDPWFCEAREARDVGDTCSVGKKDEEQAALGQKRKRKSPREHNGKVKKKKKIHQEGDALPGHSKPSRSMESSPRKGSKKKPVKVEAPEYIPISDDPKASAKKKMKSKKKVEQPVIEEPALKRKKKKKRKESGVAGDPWKEETDTDLEVVLEKKGNMDEAHIDQVRRKALQEEIDRESGKTEASETRKWTGTQFGQWDTAGFENEDQKLKFLRLMGGFKNLSPSFSRPASTIARPNMALGKKAADSLQQNLQRDYDRAMSWKYSRGAGLGFSTAPNKIFYIDRNASKSVKLED
For B1, the Log2_Ratio.H.L.normalized.WT_S102P_forward amounted to 1.624, the Ratio.H.L.normalized.WT_S102P_forward was 0.3245, the Log2_Ratio.H.L.normalized.WT_S102P_reverse is recorded as 1.083 and the Ratio.H.L.normalized.WT_S102P_reverse stood at 2.1181.

B2: MFAP1 (protein, UniProt P55081 2-439, looked up)
Microfibrillar-associated …: SVPSALMKQPPIQSTAGAVPVRNEKGEISMEKVKVKRYVSGKRPDYAPMESSDEEDEEFQFIKKAKEQEAEPEEQEEDSSSDPRLRRLQNRISEDVEERLARHRKIVEPEVVGESDSEVEGDAWRMEREDSSEEEEEEIDDEEIERRRGMMRQRAQERKNEEMEVMEVEDEGRSGEESESESEYEEYTDSEDEMEPRLKPVFIRKKDRVTVQEREAEALKQKELEQEAKRMAEERRKYTLKIVEEETKKELEENKRSLAALDALNTDDENDEEEYEAWKVRELKRIKRDREDREALEKEKAEIERMRNLTEEERRAELRANGKVITNKAVKGKYKFLQKYYHRGAFFMDEDEEVYKRDFSAPTLEDHFNKTILPKVMQVKNFGRSGRTKYTHLVDQDTTSFDSAWGQESAQNTKFFKQKAAGVRDVFERPSAKKRKTT
As for B2, the Log2_Ratio.H.L.normalized.WT_S102P_forward worked out at 1.854, the Ratio.H.L.normalized.WT_S102P_forward was 0.2766, the Log2_Ratio.H.L.normalized.WT_S102P_reverse was found to be 1.161 and the Ratio.H.L.normalized.WT_S102P_reverse came out at 2.2368.

B3: MSANTD2 (protein, UniProt Q6P1R3 1-559, looked up)
Myb/SANT-like DNA-binding …: MAAPCGSELPANSPLKIPKMEVLSPASPGGLSDGNPSLSDPSTPRGASPLGPGSAAGSGAAASGGLGLGLGGRSAASSSVSFSPGGGGGGAAAAAAAACRGMSWTPAETNALIAVWGNERLVEARYQQLEGAGTVFGSKAPGPAMYERVSRALAELGYERTPSQCRERIKTLRRCYSRVKEHGVGKRKSSYTFEQLEQVFGQGGWDAQPCQPVLINSSGLYQELESDGSTMEDYSQEDWGNHSQDLHGYPTDQELDEIPVTKRTLKIKQESSEEAQKRDIMQNIVQILESVQLKWELFQSWTDFSRLHLSNKLAIFGIGYNTRWKEDIRYHYAEISSQVPLGKRLREYFNSEKPEGRIIMTRVQKMNWKNVYYKFLEITISEARCLELHMEIDWIPIAHSKPTGGNVVQYLLPGGIPKSPGLYAIGYEECIERPLSPHMEQSSLDPGKEGRVDLETLSAQASLQVEIEPTRIIYCYLGIAEVRTLQQCLFLHFQANTKTFSKDWVGINGFLSQNCIVDPGVSPKSIYIKFVEVERDFLSAGSLVECLEKAIGYPLKFNN
Turning to B3, the Log2_Ratio.H.L.normalized.WT_S102P_forward is 1.423, the Ratio.H.L.normalized.WT_S102P_forward is given as 0.373, the Log2_Ratio.H.L.normalized.WT_S102P_reverse was determined as 1.156 and the Ratio.H.L.normalized.WT_S102P_reverse amounted to 2.2282.

B4: NPAT (protein, UniProt Q14207 1-1427, looked up)
Protein NPAT: MLLPSDVARLVLGYLQQENLISTCQTFILESSDLKEYAEHCTDEGFIPACLLSLFGKNLTTILNEYVAMKTKETSNNVPAIMSSLWKKLDHTLSQIRSMQSSPRFAGSQRARTRTGIAEIKRQRKLASQTAPASAELLTLPYLSGQFTTPPSTGTQVTRPSGQISDPSRSYFVVVNHSQSQDTVTTGEALNVIPGAQEKKAHASLMSPGRRKSESQRKSTTLSGPHSTIRNFQDPNAFAVEKQMVIENAREKILSNKSLQEKLAENINKFLTSDNNIAQVPKQTDNNPTEPETSIDEFLGLPSEIHMSEEAIQDILEQTESDPAFQALFDLFDYGKTKNNKNISQSISSQPMESNPSIVLADETNLAVKGSFETEESDGQSGQPAFCTSYQNDDPLNALKNSNNHDVLRQEDQENFSQISTSIQKKAFKTAVPTEQKCDIDITFESVPNLNDFNQRGNSNAECNPHCAELYTNQMSTETEMAIGIEKNSLSSNVPSESQLQPDQPDIPITSFVSLGCEANNENLILSGKSSQLLSQDTSLTGKPSKKSQFCENSNDTVKLKINFHGSKSSDSSEVHKSKIEINVLEPVMSQLSNCQDNSCLQSEILPVSVESSHLNVSGQVEIHLGDSLSSTKQPSNDSASVELNHTENEAQASKSENSQEPSSSVKEENTIFLSLGGNANCEKVALTPPEGTPVENSHSLPPESVCSSVGDSHPESQNTDDKPSSNNSAEIDASNIVSLKVIISDDPFVSSDTELTSAVSSINGENLPTIILSSPTKSPTKNAELVKCLSSEETVGAVVYAEVGDSASMEQSLLTFKSEDSAVNNTQNEDGIAFSANVTPCVSKDGGYIQLMPATSTAFGNSNNILIATCVTDPTALGTSVSQSNVVVLPGNSAPMTAQPLPPQLQTPPRSNSVFAVNQAVSPNFSQGSAIIIASPVQPVLQGMVGMIPVSVVGQNGNNFSTPPRQVLHMPLTAPVCNRSIPQFPVPPKSQKAQGLRNKPCIGKQVNNLVDSSGHSVGCHAQKTEVSDKSIATDLGKKSEETTVPFPEESIVPAAKPCHRRVLCFDSTTAPVANTQGPNHKMVSQNKERNAVSFPNLDSPNVSSTLKPPSNNAIKREKEKPPLPKILSKSESAISRHTTIRETQSEKKVSPTEIVLESFHKATANKENELCSDVERQKNPENSKLSIGQQNGGLRSEKSIASLQEMTKKQGTSSNNKNVLSVGTAVKDLKQEQTKSASSLITTEMLQDIQRHSSVSRLADSSDLPVPRTPGSGAGEKHKEEPIDIIKAPSSRRFSEDSSTSKVMVPPVTPDLPACSPASETGSENSVNMAAHTLMILSRAAISRTTSATPLKDNTQQFRASSRSTTKKRKIEELDERERNSRPSSKNLTNSSIPMKKKKIKKKKLPSSFPAGMDVDKFLLSLHYDE
With B4, the Log2_Ratio.H.L.normalized.WT_S102P_forward was found to be 1.209, the Ratio.H.L.normalized.WT_S102P_forward amounted to 0.4326, the Log2_Ratio.H.L.normalized.WT_S102P_reverse came to 1.214 and the Ratio.H.L.normalized.WT_S102P_reverse worked out at 2.3205.

B5: PDAP1 (protein, UniProt Q13442 1-181, looked up)
28 kDa heat- and acid-stable …: MPKGGRKGGHKGRARQYTSPEEIDAQLQAEKQKAREEEEQKEGGDGAAGDPKKEKKSLDSDESEDEEDDYQQKRKGVEGLIDIENPNRVAQTTKKVTQLDLDGPKELSRREREEIEKQKAKERYMKMHLAGKTEQAKADLARLAIIRKQREEAARKKEEERKAKDDATLSGKRMQSLSLNK
In the case of B5, the Log2_Ratio.H.L.normalized.WT_S102P_forward is on record as 1.555, the Ratio.H.L.normalized.WT_S102P_forward stood at 0.3404, the Log2_Ratio.H.L.normalized.WT_S102P_reverse worked out at 1.001 and the Ratio.H.L.normalized.WT_S102P_reverse is given as 2.0014.
